The target in test [1] is T1, gastrin-releasing peptide receptor (GRPR) (UniProt P30550 1-384, limits assumed).
T1 construct: whole, on cells; Endogenous receptor on PC3 and H441 cells, xenograft tumors or PC3 cell lysate; the cell lines are human; also called GRP receptor
Briefly: Scatchard plot experiments, GRPR on cancer cell lines.

Test [2] deals with T1, gastrin-releasing peptide receptor …. In words: Scatchard plot from absorbance-based assay on wells of PC3 cell lysate; Kd of this variant not given.

T1 sequence (P30550 whole entry): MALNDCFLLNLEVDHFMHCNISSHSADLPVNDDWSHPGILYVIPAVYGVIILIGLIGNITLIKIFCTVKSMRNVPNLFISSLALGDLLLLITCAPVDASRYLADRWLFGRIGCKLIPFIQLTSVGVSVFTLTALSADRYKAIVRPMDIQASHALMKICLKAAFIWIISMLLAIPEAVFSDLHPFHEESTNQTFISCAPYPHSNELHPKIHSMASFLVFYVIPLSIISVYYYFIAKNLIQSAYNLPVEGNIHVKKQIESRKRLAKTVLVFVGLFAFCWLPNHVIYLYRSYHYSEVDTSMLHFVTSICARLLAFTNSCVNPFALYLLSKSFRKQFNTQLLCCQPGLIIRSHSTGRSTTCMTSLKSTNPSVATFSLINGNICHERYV

B1: ProCA1.B10 (designed binder)
chain: RDSGTVWGALGHGIELNIPNFQMTDDIDEVRWERGSTLVAEFKRKMKPFLKSGGSGGGNQWAVGHLMGGSGGAFEIDANGDLDIKNLTRDDSGTYNVTVYSTNGTRILNKALDLRILE
With B1, the binding result in test [1] was “binds”.

B2: ProCA1.G10 (designed binder)
chain: RDSGTVWGALGHGIELNIPNFQMTDDIDEVRWERGSTLVAEFKRKMKPFLKSGGSGGGNHWAVGHLMGGSGGAFEIDANGDLDIKNLTRDDSGTYNVTVYSTNGTRILNKALDLRILE
Turning to B2, in test [2], the binding result is given as “binds”.

Source of the values: patent publication US9956304 (GEORGIA STATE UNIVERSITY RESEARCH FOUNDATION, dated 2018).
